According to patent publication US20260151494A1 (ARO BIOTHERAPEUTICS, published 2026):

Legend:
[1] = target: T1, human CD71 extracellular domain (human, UniProt P02786 89-760); assay: primary ELISA; note: test concentration or dose not given here
T1 construct: also called hCD71; CD71-ECD

[2] = target: T2, human apical domain of CD71 (human, UniProt P02786 189-383, limits assumed); assay: primary ELISA; note: test concentration or dose not given here
T2 construct: domain: apical domain

[3] = target: T1, human CD71 extracellular domain; assay: primary ELISA; signal over HSA control; for RLU: test concentration or dose not given here
[4] = target: T2, human apical domain of CD71; assay: primary ELISA; signal over HSA control; for RLU: test concentration or dose not given here

T1 sequence (P02786 89-760): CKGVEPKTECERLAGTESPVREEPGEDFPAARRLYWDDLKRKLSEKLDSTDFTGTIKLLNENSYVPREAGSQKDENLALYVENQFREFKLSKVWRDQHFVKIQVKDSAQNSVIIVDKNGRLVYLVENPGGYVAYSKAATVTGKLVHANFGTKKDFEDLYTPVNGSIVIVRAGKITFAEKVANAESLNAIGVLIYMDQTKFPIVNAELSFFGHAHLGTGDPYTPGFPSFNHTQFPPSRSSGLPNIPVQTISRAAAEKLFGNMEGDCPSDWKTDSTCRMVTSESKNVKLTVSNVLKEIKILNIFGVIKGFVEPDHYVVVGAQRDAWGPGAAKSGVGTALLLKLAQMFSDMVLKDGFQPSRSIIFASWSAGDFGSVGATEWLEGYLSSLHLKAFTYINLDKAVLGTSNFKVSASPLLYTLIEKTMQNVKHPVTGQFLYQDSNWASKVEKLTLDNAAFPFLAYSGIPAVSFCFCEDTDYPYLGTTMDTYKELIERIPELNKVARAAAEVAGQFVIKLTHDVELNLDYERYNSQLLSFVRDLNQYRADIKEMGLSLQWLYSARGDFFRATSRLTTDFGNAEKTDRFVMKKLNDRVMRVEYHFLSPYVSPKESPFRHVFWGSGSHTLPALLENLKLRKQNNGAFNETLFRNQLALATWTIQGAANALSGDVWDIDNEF
T2 sequence (P02786 189-383 limits assumed): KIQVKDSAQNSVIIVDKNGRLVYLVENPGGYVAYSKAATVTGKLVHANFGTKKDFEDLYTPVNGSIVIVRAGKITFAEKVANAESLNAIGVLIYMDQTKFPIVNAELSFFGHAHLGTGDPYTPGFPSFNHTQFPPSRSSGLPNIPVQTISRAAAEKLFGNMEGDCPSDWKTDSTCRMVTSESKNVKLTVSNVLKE

| Binder | RLU [1] [RLU] | RLU [2] [RLU] | hCD71:HSA [3] [ratio] | Apical domain:HSA [4] [ratio] |
| --- | --- | --- | --- | --- |
| CD71-binding FN3 domain SEQ ID NO 434 (designed binder) MLPAPKNLVVSRVTEDSARLSWTAPDAAFDSFFIGYLEPQPPGEAIGLQVPGSERSYDLTGLKPGTEYNVTIQGVKGGFPSDPLQAIFTT | 3.13e+06 | 4.03e+06 | 313 | 403 |
| CD71-binding FN3 domain SEQ ID NO 441 (designed binder) MLPAPKNLVVSRVTEDSARLSWTAPDAAFDSFFIGYLEPQPPGEAILLWVPGSERSYDLTGLKPGTEYNVTIQGVKGGFPSDPLIANFTT | 5.92e+06 | 5.74e+06 | 32 | 31 |
| CD71-binding FN3 domain SEQ ID NO 439 (designed binder) MLPAPKNLVVSRVTEDSARLSWTAPDAAFDSFFIGYLEPQPPGEAIHLFVPGSERSYDLTGLKPGTEYNVTIQGVKGGFPSVPLNAYFTT | 5.47e+06 | 6.56e+06 | 215 | 258 |
| CD71-binding FN3 domain SEQ ID NO 443 (designed binder) MLPAPKNLVVSRVTEDSARLSWTAPDAAFDSFFIGYLEPQPPGEAIELYVPGSERSYDLTGLKPGTEYNVTIQGVKGGFPSDPLHAAFTT | 5.38e+06 | 4.4e+06 | 142 | 116 |
| CD71-binding FN3 domain SEQ ID NO 437 (designed binder) MLPAPKNLVVSRVTEDSARLSWTAPDAAFDSFFIGYLEPQPPGEAISLWVPGSERSYDLTGLKPGTEYNVTIQGVKGGFPSTPLSAKFTT | 3.22e+06 | 2.82e+06 | 168 | 147 |
| CD71-binding FN3 domain SEQ ID NO 436 (designed binder) MLPAPKNLVVSRVTEDSARLSWTAPDAAFDSFFIGYLEPQPPGEAIHLLVPGSERSYDLTGLKPGTEYNVTIQGVKGGFPSEPLWAKFTT | 4.46e+06 | 5.66e+06 | 227 | 288 |
| CD71-binding FN3 domain SEQ ID NO 438 (designed binder) MLPAPKNLVVSRVTEDSARLSWTAPDAAFDSFFIGYLEPQPPGEAIDLWVPGSERSYDLTGLKPGTEYNVTIQGVKGGFPSYPLLAIFTT | 4.96e+06 | 5.59e+06 | 143 | 161 |
| CD71-binding FN3 domain SEQ ID NO 370 (designed binder) MLPAPKNLVVSRVTEDSARLSWTAPDAAFDSFYIAYAEPRPDGEAIVLVVPGSERSYDLTGLKPGTEYSVLIHGVKGGLLSSPLSAHFTT | 2.13e+06 | 4.83e+06 | 212 | 480 |
| CD71-binding FN3 domain SEQ ID NO 367 (designed binder) MLPAPKNLVVSRVTEDSARLSWTAPDAAFDSFYIAYAEPRPDGEAILLVVPGSERSYDLTGLKPGTEYSVLIHGVKGGLLSSPLVAFFTT | 4.62e+06 | 6.51e+06 | 47 | 66 |
| CD71-binding FN3 domain SEQ ID NO 381 (designed binder) MLPAPKNLVVSRVTEDSARLSWTAPDAAFDSFEIAYQELSLWGEAIVLTVPGSERSYDLTGLKPGTEYYVHIGGVKGGIWSRPLSAIFTT | 2.48e+06 | 5.14e+06 | 110 | 227 |
| CD71-binding FN3 domain SEQ ID NO 418 (designed binder) MLPAPKNLVVSRVTEDSARLSWTAPDAAFDSFEIAYFENSYYGEAIVLTVPGSERSYDLTGLKPGTEYAVYIGGVKGGSWSNPLSAISTT | 1.95e+06 | 5.05e+06 | 30 | 77 |
| CD71-binding FN3 domain SEQ ID NO 407 (designed binder) MLPAPKNLVVSRVTEDSARLSWTAPDAAFDSFEIAYFETCRTGEAIVLTVPGSERSYDLTGLKPGTEYRVWIGGVKGGVWSRPLSAIFTT | 1.73e+06 | 4.64e+06 | 23 | 61 |
| CD71-binding FN3 domain SEQ ID NO 388 (designed binder) MLPAPKNLVVSRVTEDSARLSWTAPDAAFDSFEIAYFEYCLNGEAIVLTVPGSERSYDLTGLKPGTEYWVQIGGVKGGTWSWPLSAIFTT | 1.09e+06 | 4.29e+06 | 34 | 135 |
| CD71-binding FN3 domain SEQ ID NO 390 (designed binder) MLPAPKNLVVSRVTEDSARLSWTAPDAAFDSFEIGYFERAWFGEAIVLTVPGSERSYDLTGLKPGTEYAVFIGGVKGGSYSYPLSAIFTT | 1.93e+06 | 4.78e+06 | 53 | 131 |
| CD71-binding FN3 domain SEQ ID NO 429 (designed binder) MLPAPKNLVVSRVTEDSARLSWTAPDAAFDSFEIGYFERSFYGEAIILFVPGSERSYDLTGLKPGTEYAVWIGGVKGGVWSRPLSAIFTT | 1.95e+06 | 4.39e+06 | 124 | 280 |

The next lines start with the values.

| RLU [1] [RLU] | RLU [2] [RLU] | hCD71:HSA [3] [ratio] | Apical domain:HSA [4] [ratio] | Binder |
| --- | --- | --- | --- | --- |
| 6.65e+06 | 6.73e+06 | 76 | 77 | CD71-binding FN3 domain SEQ ID NO 445 (designed binder) MLPAPKNLVVSRVTEDSARLSWTAPDAAFDSFFIGYLEPQPPGEAIHLFVPGSERSYDLTGLKPGTEYNVTIQGVKGGFPSDPLVASFTT |
| 3.62e+06 | 5.5e+06 | 210 | 319 | CD71-binding FN3 domain SEQ ID NO 435 (designed binder) MLPAPKNLVVSRVTEDSARLSWTAPDAAFDSFFIGYLEPQPPGEAIALWVPGSERSYDLTGLKPGTEYNVTIQGVKGGFPSHPLAAVFTT |
| 1e+06 | 3.64e+06 | 76 | 277 | CD71-binding FN3 domain SEQ ID NO 374 (designed binder) MLPAPKNLVVSRVTEDSARLSWTAPDAAFDSFYIAYAEPRPDGEAIQLSVPGSERSYDLTGLKPGTEYSVLIHGVKGGLLSSPLHASFTT |
| 3.57e+06 | 6.97e+06 | 120 | 233 | CD71-binding FN3 domain SEQ ID NO 359 (designed binder) MLPAPKNLVVSRVTEDSARLSWTAPDAAFDSFLIPYAETSPSGEAIVLTVPGSERSYDLTGLKPGTEYSVLIHGVKGGDYSSPLSAIFTT |
| 1.28e+06 | 3.96e+06 | 130 | 400 | CD71-binding FN3 domain SEQ ID NO 386 (designed binder) MLPAPKNLVVSRVTEDSARLSWTAPDAAFDSFYIAYAEPRPDGEAITLLVPGSERSYDLTGLKPGTEYSVLIHGVKGGLLSSPLSAIFTT |
| 3.64e+06 | 5.34e+06 | 233 | 342 | CD71-binding FN3 domain SEQ ID NO 403 (designed binder) MLPAPKNLVVSRVTEDSARLSWTAPDAAFDSFYIAYAEPRPDGEAIVLDVPGSERSYDLTGLKPGTEYSVLIHGVKGGLLSSPLVADFTT |
| 2.38e+06 | 5.42e+06 | 63 | 144 | CD71-binding FN3 domain SEQ ID NO 352 (designed binder) MLPAPKNLVVSRVTEDSARLSWTAPDAAFDSFEIAYQELSLWGEAIVLTVPGSERSYDLTGLKPGTEYYVHIGGVKGGIWSSPLSAIFTT |
| 1.83e+06 | 4.8e+06 | 115 | 302 | CD71-binding FN3 domain SEQ ID NO 348 (designed binder) MLPAPKNLVVSRVTEDSARLSWTAPDAAFDSFEISYFENTWYGEAIVLTVPGSERSYDLTGLKPGTEYVVWIGGVKGGLWSKPLSAIFTT |
| 2.34e+06 | 5.02e+06 | 39 | 83 | CD71-binding FN3 domain SEQ ID NO 358 (designed binder) MLPAPKNLVVSRVTEDSARLSWTAPDAAFDSFEIGYWENAYKGEAIVLTVPGSERSYDLTGLKPGTEYVVFIGGVKGGVWSVPLSAIFTT |
| 2.26e+06 | 4.88e+06 | 89 | 192 | CD71-binding FN3 domain SEQ ID NO 440 (designed binder) MLPAPKNLVVSRVTEDSARLSWTAPDAAFDSFEIVYAEWTQHGEAIVLTVPGSERSYDLTGLKPGTEYYVHIGGVKGGKWSPPLYAIFTT |
